What all share (experiment): SPR; BIAcore X-100; FGF8b (20 μg/ml in 10 mM sodium acetate, pH 6.0) or other FGFs (10 mM sodium acetate at optimal pH) immobilised on a CM5 sensor chip by EDC/NHS; peptide injected (ARPCA 8 μM to 2000 μM), 4 min at 30 μl/min, 10 min dissociation, in HBS; equilibrium values fitted with the Langmuir equation for monovalent binding
Conditions in all cases: both partners purified

In one assay the target is T1, FGF17 (UniProt O60258 23-216).
T1 construct: fibroblast growth factor 17 (FGF17)
T1 sequence (looked up): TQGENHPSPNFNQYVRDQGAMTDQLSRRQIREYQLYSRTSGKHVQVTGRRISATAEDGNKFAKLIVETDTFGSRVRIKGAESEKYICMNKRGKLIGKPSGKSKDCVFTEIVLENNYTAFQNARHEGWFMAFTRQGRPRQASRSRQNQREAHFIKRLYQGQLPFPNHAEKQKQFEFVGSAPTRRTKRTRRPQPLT

For a further assay, the target named is T2, FGF18 (UniProt O76093 28-207).
T2 construct: fibroblast growth factor 18 (FGF18)
T2 sequence (looked up): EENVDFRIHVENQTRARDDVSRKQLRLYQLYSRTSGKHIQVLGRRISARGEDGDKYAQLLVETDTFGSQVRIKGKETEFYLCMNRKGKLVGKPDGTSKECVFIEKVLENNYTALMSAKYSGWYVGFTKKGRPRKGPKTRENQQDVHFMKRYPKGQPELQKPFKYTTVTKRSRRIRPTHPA

A further assay concerns the target T3, FGF7 (UniProt P21781 32-194).
T3 construct: fibroblast growth factor 7 (FGF7)
T3 sequence (looked up): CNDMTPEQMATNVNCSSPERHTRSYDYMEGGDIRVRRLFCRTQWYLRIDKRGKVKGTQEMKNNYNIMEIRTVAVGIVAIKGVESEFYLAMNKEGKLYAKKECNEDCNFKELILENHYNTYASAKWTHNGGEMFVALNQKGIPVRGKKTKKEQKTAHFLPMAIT

A further assay deals with T4, FGF20 (UniProt Q9NP95 1-211).
T4 construct: fibroblast growth factor 20 (FGF20)

Another assay concerns the target T5, FGF22 (UniProt Q9HCT0 23-170).
T5 construct: fibroblast growth factor 22 (FGF22)
T5 sequence (looked up): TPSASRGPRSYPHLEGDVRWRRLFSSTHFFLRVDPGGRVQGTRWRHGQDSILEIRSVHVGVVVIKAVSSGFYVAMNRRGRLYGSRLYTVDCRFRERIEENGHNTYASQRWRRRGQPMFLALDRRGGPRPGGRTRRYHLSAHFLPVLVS

The next assay addresses T6, FGF16 (UniProt O43320 1-207).
T6 construct: fibroblast growth factor 16 (FGF16)

For another assay, the target named is T7, FGF5 (UniProt P12034 21-268).
T7 construct: fibroblast growth factor 5 (FGF5)
T7 sequence (looked up): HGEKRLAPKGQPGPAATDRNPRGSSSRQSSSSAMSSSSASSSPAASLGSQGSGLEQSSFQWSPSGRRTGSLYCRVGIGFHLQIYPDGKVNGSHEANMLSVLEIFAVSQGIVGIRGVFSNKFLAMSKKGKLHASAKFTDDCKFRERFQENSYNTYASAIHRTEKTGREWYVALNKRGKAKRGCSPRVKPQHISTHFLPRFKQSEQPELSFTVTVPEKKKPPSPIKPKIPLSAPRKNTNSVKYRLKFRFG

This is an account of results in publication PMC4537050, “A long pentraxin-3-derived pentapeptide for the therapy of FGF8b-driven steroid hormone-regulated cancers” (Oncotarget, 2015).

T4 sequence (Q9NP95 whole entry): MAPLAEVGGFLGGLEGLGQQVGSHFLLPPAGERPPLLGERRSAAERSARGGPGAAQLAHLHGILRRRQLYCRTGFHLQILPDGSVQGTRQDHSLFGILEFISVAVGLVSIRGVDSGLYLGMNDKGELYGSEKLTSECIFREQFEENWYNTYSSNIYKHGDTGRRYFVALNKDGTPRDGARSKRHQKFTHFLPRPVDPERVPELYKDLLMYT

B1: Ac-ARPCA-NH2, acetylated pentapeptide corresponding to PTX3(100-104) (peptide)
peptide: Ac-ARPCA-NH2
notes: long pentraxin-3 (PTX3), residues 100-104 of the N-terminal extension; source: synthetic peptide, provided by R. Longhi and A. Gori (CNR, Milano, Italy)
Regarding B1, the Kd in the assay with FGF17 came to 476 µM; in the assay with FGF18, 26 µM; in the assay with FGF7, 885 µM; with FGF20, 264 µM; with FGF22, 129 µM; with FGF16 it was 112 µM. This molecule showed a Kd with FGF5 of 299 µM.
